The target of experiment [1] is YY1 cellular transcription factor (UniProt P25490). As to the kind of experiment: co-immunoprecipitation (FLAG-EBNA-LP IP, YY1 immunoblot, band signal quantified). The settings on record: 50% IP lanes; trans-complemented LPKO LCLs from total B cells; parent: 1.0.
Experiment [2] shares this target. As to the kind of experiment: co-immunoprecipitation (YY1 IP, FLAG-EBNA-LP immunoblot, band signal quantified). The settings on record: 50% IP lanes; trans-complemented LPKO LCLs; parent: 1. (A western blot detects proteins with antibodies after separation by electrophoresis.)

Sequence of UniProt P25490 (P25490 whole entry): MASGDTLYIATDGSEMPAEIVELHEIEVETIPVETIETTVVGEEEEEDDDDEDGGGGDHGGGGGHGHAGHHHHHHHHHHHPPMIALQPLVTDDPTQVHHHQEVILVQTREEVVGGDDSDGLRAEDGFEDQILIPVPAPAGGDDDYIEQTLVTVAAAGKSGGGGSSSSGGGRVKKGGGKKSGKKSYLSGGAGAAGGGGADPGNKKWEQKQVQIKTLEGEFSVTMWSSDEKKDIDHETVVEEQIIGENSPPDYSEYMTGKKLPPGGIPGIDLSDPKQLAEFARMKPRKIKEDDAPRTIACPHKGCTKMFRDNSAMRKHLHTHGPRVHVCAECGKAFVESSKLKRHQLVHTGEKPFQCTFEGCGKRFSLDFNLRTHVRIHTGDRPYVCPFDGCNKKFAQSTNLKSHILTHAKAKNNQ

For “FLAG-EBNA-LP, wild type (B95-8), four W domains W:L25A; W:L28A; W:L29A; Y:L13A; Y:L17A; Y:L18A”, the figures for the response in experiment [1] and in experiment [2] were 0.01 and 0, respectively.

The values above are taken from publication doi:10.1101/2024.01.07.574580.
